How the values were obtained:
GST-human NOGO-A56 [1] = target: T1, GST-human NOGO-A56 (human); experiment: SPR (Biacore T100), reverse format: antibody captured by Protein A, GST-NOGO-A56 flowed over; mean
T1 construct: Expressed in E. coli BL21 from pGEX-6P1 and purified on glutathione-sepharose; the GST tag is part of the protein in the assays; also called GST-Nogo-A 5+6; GST Nogo-A 5 + 6
Excerpt: (§1) Protein A was immobilised on the surface at about 4000RUs and anti-Nogo-A antibodies were captured at approximately 300-400RUs. […] All the runs were done in duplicates. The values show the mean and standard deviation (in brackets) of 1-3 independent runs with each run done in duplicate and each data set analysed independently prior to calculation of the mean and standard deviation.

[2] = target: T2, Rat NOGO (A56) plus GST tag (rat); experiment: as above
T2 construct: also called GST-NOGO-A56 from rat
T2 sequence (chain, as listed by the source limits assumed): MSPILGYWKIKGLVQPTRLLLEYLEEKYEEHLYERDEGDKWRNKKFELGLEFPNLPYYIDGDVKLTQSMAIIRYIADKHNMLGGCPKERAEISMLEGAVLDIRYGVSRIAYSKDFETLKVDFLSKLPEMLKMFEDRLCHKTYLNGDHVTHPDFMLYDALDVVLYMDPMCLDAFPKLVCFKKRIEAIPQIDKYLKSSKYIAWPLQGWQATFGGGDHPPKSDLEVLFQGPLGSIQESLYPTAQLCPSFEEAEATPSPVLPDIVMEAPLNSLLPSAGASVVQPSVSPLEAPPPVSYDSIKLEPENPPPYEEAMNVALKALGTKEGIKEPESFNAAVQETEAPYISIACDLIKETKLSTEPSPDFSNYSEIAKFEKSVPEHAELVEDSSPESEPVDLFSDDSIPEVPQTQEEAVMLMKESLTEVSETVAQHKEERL
Excerpt: as §1

[3] = target: T3, Marmoset NOGO (A56) plus GST tag (marmoset); experiment: as above
T3 construct: also called GST-NOGO-A56 from marmoset
T3 sequence (chain, as listed by the source limits assumed): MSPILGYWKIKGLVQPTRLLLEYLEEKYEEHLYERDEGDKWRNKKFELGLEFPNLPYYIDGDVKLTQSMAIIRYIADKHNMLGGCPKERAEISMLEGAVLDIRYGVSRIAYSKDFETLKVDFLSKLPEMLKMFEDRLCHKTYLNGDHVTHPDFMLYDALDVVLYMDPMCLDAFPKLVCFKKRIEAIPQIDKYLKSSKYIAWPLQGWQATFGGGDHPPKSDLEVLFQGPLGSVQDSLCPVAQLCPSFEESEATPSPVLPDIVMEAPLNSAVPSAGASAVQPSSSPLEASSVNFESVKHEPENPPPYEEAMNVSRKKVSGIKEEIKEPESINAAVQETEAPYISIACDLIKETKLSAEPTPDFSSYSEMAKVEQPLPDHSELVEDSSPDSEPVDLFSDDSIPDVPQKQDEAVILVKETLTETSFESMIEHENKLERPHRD
Excerpt: as §1

[4] = target: T4, Squirrel monkey NOGO (A56) plus GST tag (squirrel monkey); experiment: as above
T4 construct: also called GST-NOGO-A56 from squirrel monkey
T4 sequence (chain, as listed by the source limits assumed): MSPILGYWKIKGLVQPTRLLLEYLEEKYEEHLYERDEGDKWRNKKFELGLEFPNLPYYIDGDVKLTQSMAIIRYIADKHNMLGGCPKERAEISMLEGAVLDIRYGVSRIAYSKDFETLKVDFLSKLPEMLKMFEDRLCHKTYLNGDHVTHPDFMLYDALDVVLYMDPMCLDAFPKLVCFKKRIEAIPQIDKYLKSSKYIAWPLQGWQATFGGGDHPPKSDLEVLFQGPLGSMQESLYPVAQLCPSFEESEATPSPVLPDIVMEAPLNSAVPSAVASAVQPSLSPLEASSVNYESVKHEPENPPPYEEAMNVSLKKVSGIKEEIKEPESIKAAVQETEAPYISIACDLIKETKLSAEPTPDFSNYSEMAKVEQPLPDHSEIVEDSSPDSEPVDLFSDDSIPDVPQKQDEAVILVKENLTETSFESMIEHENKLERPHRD
Excerpt: as §1

[5] = target: T5, Cynomolgus monkey NOGO (A56) plus GST tag (cynomolgus monkey); experiment: as above
T5 construct: also called cynomolgus Nogo-A; GST-NOGO-A56 from cynomolgus
T5 sequence (chain, as listed by the source limits assumed): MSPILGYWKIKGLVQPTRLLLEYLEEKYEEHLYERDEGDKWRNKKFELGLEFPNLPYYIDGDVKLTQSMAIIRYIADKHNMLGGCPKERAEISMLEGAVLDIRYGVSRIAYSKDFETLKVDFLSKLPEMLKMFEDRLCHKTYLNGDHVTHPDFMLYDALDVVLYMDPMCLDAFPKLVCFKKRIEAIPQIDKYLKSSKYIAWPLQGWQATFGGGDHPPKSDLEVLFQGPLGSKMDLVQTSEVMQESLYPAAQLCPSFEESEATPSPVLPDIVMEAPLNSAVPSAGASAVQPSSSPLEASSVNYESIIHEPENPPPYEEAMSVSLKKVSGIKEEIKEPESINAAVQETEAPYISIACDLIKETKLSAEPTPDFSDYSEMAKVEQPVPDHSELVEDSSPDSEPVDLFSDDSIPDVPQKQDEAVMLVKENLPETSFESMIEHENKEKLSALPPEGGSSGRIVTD
Excerpt: as §1

GST-human NOGO-A56 [6] = target: T1, GST-human NOGO-A56; experiment: direct ELISA, GST-Nogo-A 5+6 coated at 1.0 mcg/ml, anti-human IgG-HRP, Abs490
Description: (§2) Wells were rinsed once with TBS+0.05% Tween (TBST) then incubated with 2% BSA in TBST to block non-specific binding sites at room temperature for 1 hour. Antibodies were diluted in TBST+2% BSA to 10 μg/ml and ½ dilutions made from this. Antibodies were added to wells in duplicate and incubated at room temperature for 1 hour. […] The wells were washed three times with TBST and then incubated with 100 μl OPD peroxidase substrate (Sigma) per well for 10 minutes. The colour reaction was stopped by the addition of 25 μl concentrated H₂SO₄. Optical density at 490 nm was measured using a plate reader. Background values read from wells with no antibody were subtracted.

GST-human NOGO-A56 [7] = target: T1, GST-human NOGO-A56; experiment: SPR (Biacore), GST-human NOGO-A56 amine-coupled to CM5, antibody flowed over, 25 C
[8] = target: T4, Squirrel monkey NOGO (A56) plus GST tag; experiment: direct ELISA on GST-NOGO-A56 from squirrel monkey, Abs490
[9] = target: T3, Marmoset NOGO (A56) plus GST tag; experiment: direct ELISA on GST-NOGO-A56 from marmoset, Abs490
GST-human NOGO-A56 [10] = target: T1, GST-human NOGO-A56; experiment: SPR (Biacore), GST-human NOGO-A56 amine-coupled to CM5, antibody flowed over, 25 C; remark: listed apart in the source
Description: (§3) GST-human NOGO-A56 was immobilised to a CM5 chip by primary amine coupling using the Biacore Wizard program designed for targeted immobilisation levels. The CM5 sensor surface was activated by passing a solution of 50 mM N-hydroxy-succinimide (NHS) and 200 mM N-ethyl-N′-dimethylaminopropyl carbonide (EDC). Then GST-human NOGO-A56 in sodium acetate buffer, pH5.0 or pH 4.5, was passed over the chip and immobilised. After immobilisation was complete any still activated esters were blocked by an injection of 1M ethanolamine hydrochloride, pH8.5.
(§4) The anti-NOGO mAbs were diluted down in HBS-EP (10 mM HEPES, pH 7.4, 150 mM NaCl, 3 mM EDTA, and 0.005% P-20 surfactant) for the BIAcore 3000 or HBS-EP+ (10 mM HEPES, pH 7.4, 150 mM NaCl, 3 mM EDTA, and 0.05% P-20 surfactant) in the case of the T100 and binding studies were carried out at range of defined antibody concentrations. All runs were referenced against a blanked sensor surface (one that had been activated and blocked as described earlier but had no addition of ligand). Analysis of binding was carried out using the BIAevaluation kinetic analysis software version 4.1 for the BIAcore 3000 and T100 kinetic analysis software version 1.0. […] Unless otherwise stated, the BIAcore experiments were performed at 25° C.

GST-human NOGO-A56 [11] = target: T1, GST-human NOGO-A56; experiment: reverse format ELISA: antibody captured on anti-human IgG, GST-Nogo-A 5+6 detected with anti-GST-HRP; the x axis is the antibody concentration
[12] = target: T2, Rat NOGO (A56) plus GST tag; experiment: direct ELISA on GST-NOGO-A56 from rat, Abs490
GST-human NOGO-A56 [13] = target: T1, GST-human NOGO-A56; experiment: direct ELISA, GST-human NOGO-A56 coated at 1.0 mcg/ml, purified antibody, OD490
Description: as §2

[14] = target: T5, Cynomolgus monkey NOGO (A56) plus GST …; experiment: direct ELISA on GST-NOGO-A56 from cynomolgus, Abs490
GST-human NOGO-A56 [15] = target: T1, GST-human NOGO-A56; experiment: SPR (Biacore T100), antigen amine-coupled to CM5, antibody 0.125-8 nM; mean of six runs in duplicate (SD in brackets)
Excerpt: In the first approach, the recombinant Nogo-A was coupled to the surface of the chip and anti-Nogo-A antibodies passed over this surface. In the second approach, Protein A was used to capture the antibody onto the surface of the chip over which the recombinant GST-human Nogo-A56 was passed.
The antigen was bound to the CM5 chip by primary amine coupling. […] The values show the mean and standard deviation (in brackets) of six independent runs carried out in duplicate. Each completed data set was analysed independently prior to the calculation of mean and standard deviation.

GST-human NOGO-A56 [16] = target: T1, GST-human NOGO-A56; experiment: SPR (Biacore), GST-human NOGO-A56 amine-coupled to CM5, antibody flowed over, 37 C
Description: as §3, §4

GST-human NOGO-A56 [17] = target: T1, GST-human NOGO-A56; experiment: SPR (Biacore), GST-human NOGO-A56 amine-coupled to CM5, antibody flowed over, 25 C; remark: listed apart in the source
Description: as §3, §4

GST-human NOGO-A56 [18] = target: T1, GST-human NOGO-A56; experiment: SPR (Biacore T100), human Nogo-A amine-coupled to CM5, antibody 0.125-8 nM flowed over; mean
[19] = target: T2, Rat NOGO (A56) plus GST tag; experiment: SPR (Biacore T100), Nogo-A orthologue amine-coupled to CM5, antibody 0.125-8 nM flowed over; mean
Excerpt: (§5) Approximately 140-180RUs of the various Nogo-A orthologues were captured to the CM5 chip by primary amine coupling. […] The values show the mean and standard deviation (in brackets) of 1-2 independent runs carried out in duplicate with each data set independently analysed prior to calculation of the mean and standard deviation.

[20] = target: T3, Marmoset NOGO (A56) plus GST tag; experiment: as above
Excerpt: as §5

[21] = target: T4, Squirrel monkey NOGO (A56) plus GST tag; experiment: as above
Excerpt: as §5

[22] = target: T5, Cynomolgus monkey NOGO (A56) plus GST …; experiment: as above
Excerpt: as §5

GST-human NOGO-A56 [23] = target: T1, GST-human NOGO-A56; experiment: direct ELISA, GST-human NOGO-A56 coated at 1.0 mcg/ml, purified antibody, OD490; remark: listed apart in the source
Description: as §2

GST-human NOGO-A56 [24] = target: T1, GST-human NOGO-A56; experiment: SPR (Biacore T100), reverse format: antibody captured by Protein A, GST Nogo-A 5+6 0.125-8 nM flowed over; mean (SD in brackets)
Excerpt: Protein A was immobilised to approximately 4000RUs by primary amine and used to capture 200-300RUs of the sample antibodies. […] The values show the mean and standard deviation (in brackets) of three independent runs in duplicate. Each data set was independently analysed prior to the calculation of the mean and standard deviation.

T1 sequence (chain, as listed by the source limits assumed): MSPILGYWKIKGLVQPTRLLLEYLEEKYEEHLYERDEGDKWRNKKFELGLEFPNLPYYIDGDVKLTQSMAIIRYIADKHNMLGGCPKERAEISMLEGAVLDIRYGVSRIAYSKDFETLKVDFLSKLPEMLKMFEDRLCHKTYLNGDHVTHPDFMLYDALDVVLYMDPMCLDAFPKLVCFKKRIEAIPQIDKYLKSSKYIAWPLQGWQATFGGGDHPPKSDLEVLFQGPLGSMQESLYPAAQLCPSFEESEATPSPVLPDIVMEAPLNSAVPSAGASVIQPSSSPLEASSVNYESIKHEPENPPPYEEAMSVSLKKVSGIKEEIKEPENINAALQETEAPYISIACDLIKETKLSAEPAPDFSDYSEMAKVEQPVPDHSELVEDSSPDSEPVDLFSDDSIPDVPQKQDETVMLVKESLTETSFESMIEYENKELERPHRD

B1: H28L16 (antibody, human IgG1, kappa)
heavy: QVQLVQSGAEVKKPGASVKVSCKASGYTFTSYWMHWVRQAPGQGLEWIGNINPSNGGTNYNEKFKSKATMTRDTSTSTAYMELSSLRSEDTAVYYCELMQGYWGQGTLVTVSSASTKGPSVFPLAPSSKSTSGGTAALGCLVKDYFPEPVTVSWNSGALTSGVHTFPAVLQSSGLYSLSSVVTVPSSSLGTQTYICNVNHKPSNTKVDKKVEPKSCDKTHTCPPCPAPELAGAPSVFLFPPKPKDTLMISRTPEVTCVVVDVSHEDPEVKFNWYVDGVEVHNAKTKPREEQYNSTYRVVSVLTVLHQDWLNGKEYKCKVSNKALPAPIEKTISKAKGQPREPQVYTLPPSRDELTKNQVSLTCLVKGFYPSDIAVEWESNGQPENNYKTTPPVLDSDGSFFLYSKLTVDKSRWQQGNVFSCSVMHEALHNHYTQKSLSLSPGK
light: DIVMTQSPLSNPVTLGQPVSISCRSSKSLLYKDGKTYLNWFLQRPGQSPQLLIYLMSTRASGVPDRFSGGGSGTDFTLKISRVEAEDVGVYYCQQLVEYPLTFGQGTKLEIKRTVAAPSVFIFPPSDEQLKSGTASVVCLLNNFYPREAKVQWKVDNALQSGNSQESVTEQDSKDSTYSLSSTLTLSKADYEKHKVYACEVTHQGLSSPVTKSFNRGEC
notes: IgG1 (L235A, G237A) / kappa; CAMPATH-1H signal (1-19) left out; also called H28FL L16FL; NOGO H28L16
- Kd (GST-human NOGO-A56 [1]): 0.4 nM
- Kd [2]: 1.76 nM
- Kd [3]: 4.89 nM
- Kd [4]: 6.86 nM
- Kd [5]: 3.41 nM
- EC50 (read off the curve) (GST-human NOGO-A56 [6]): ~0.03 mg/L
- Kd (GST-human NOGO-A56 [7]): 0.296 nM
- koff (GST-human NOGO-A56 [7]): 0.00214 s⁻¹
- kon (GST-human NOGO-A56 [7]): 7.25e+06 M⁻¹ s⁻¹
- EC50 (read off the curve) [8]: ~0.05 mg/L
- EC50 (read off the curve) [9]: ~0.04 mg/L
- Kd (GST-human NOGO-A56 [10]): 0.28 nM
- koff (GST-human NOGO-A56 [10]): 0.00195 s⁻¹
- kon (GST-human NOGO-A56 [10]): 6.89e+06 M⁻¹ s⁻¹
- EC50 (read off the curve) (GST-human NOGO-A56 [11]): ~0.06 mg/L
- EC50 (read off the curve) [12]: ~0.05 mg/L
- EC50 (read off the curve) (GST-human NOGO-A56 [13]): ~0.06 mg/L
- EC50 (read off the curve) [14]: ~0.05 mg/L
- Kd (GST-human NOGO-A56 [15]): 0.64 nM
- Kd (GST-human NOGO-A56 [16]): 0.678 nM
- koff (GST-human NOGO-A56 [16]): 0.00524 s⁻¹
- kon (GST-human NOGO-A56 [16]): 7.73e+06 M⁻¹ s⁻¹
- Kd (GST-human NOGO-A56 [17]): 0.61 nM
- koff (GST-human NOGO-A56 [17]): 0.00264 s⁻¹
- kon (GST-human NOGO-A56 [17]): 4.33e+06 M⁻¹ s⁻¹
- Kd (GST-human NOGO-A56 [18]): 0.64 nM
- kon (GST-human NOGO-A56 [18]): 6.97e+06 M⁻¹ s⁻¹
- Kd [19]: 0.33 nM
- Kd [20]: 0.626 nM
- Kd [21]: 0.61 nM
- Kd [22]: 0.67 nM
- EC50 (read off the curve) (GST-human NOGO-A56 [23]): ~0.08 mg/L
- Kd (GST-human NOGO-A56 [24]): 0.34 nM

B2: HcLc (chimera of 2A10: murine 2A10 VH and VL with human IgG constant regions) (antibody, V domains shown)
VH: QVQLQQPGTELVKPGASVKLSCKASGYTFTSYWMHWVKQRPGQGLEWIGNINPSNGGTNYNEKFKSKATLTVDKSSSTAYMQLSSLTSEDSAVYYCELGQGYWGQGTLVTVSS
VL: DIVITQDELSNPVTSGESVSISCRSSKSLLYKDGKTYLNWFLQRPGQSPQLLIYLMSTRASGVSDRFSGSGSGTDFTLEISRVKAEDVGVYYCQQLVEYPLTFGAGTKLELKR
notes: also called chimeric antibody; chimeric form of the parental antibody
- Kd (GST-human NOGO-A56 [1]): 0.54 nM
- Kd [2]: 2.01 nM
- Kd [3]: 4.51 nM
- Kd [4]: 7.45 nM
- Kd [5]: 4.66 nM
- EC50 (read off the curve) (GST-human NOGO-A56 [6]): ~0.08 mg/L
- Kd (GST-human NOGO-A56 [7]): 0.779 nM
- koff (GST-human NOGO-A56 [7]): 0.00249 s⁻¹
- kon (GST-human NOGO-A56 [7]): 3.19e+06 M⁻¹ s⁻¹
- EC50 (read off the curve) [8]: ~0.07 mg/L
- EC50 (read off the curve) [9]: ~0.09 mg/L
- Kd (GST-human NOGO-A56 [10]): 0.74 nM
- koff (GST-human NOGO-A56 [10]): 0.00233 s⁻¹
- kon (GST-human NOGO-A56 [10]): 3.17e+06 M⁻¹ s⁻¹
- EC50 (read off the curve) (GST-human NOGO-A56 [11]): ~0.1 mg/L
- EC50 (read off the curve) [12]: ~0.1 mg/L
- EC50 (read off the curve) (GST-human NOGO-A56 [13]): ~0.06 mg/L
- EC50 (read off the curve) [14]: ~0.1 mg/L
- Kd (GST-human NOGO-A56 [15]): 1.86 nM
- Kd (GST-human NOGO-A56 [16]): 1.46 nM
- koff (GST-human NOGO-A56 [16]): 0.00774 s⁻¹
- kon (GST-human NOGO-A56 [16]): 5.08e+06 M⁻¹ s⁻¹
- Kd (GST-human NOGO-A56 [17]): 1.18 nM
- koff (GST-human NOGO-A56 [17]): 0.00313 s⁻¹
- kon (GST-human NOGO-A56 [17]): 2.66e+06 M⁻¹ s⁻¹
- Kd (GST-human NOGO-A56 [18]): 1.86 nM
- Kd [19]: 1.12 nM
- Kd [20]: 1.42 nM
- Kd [21]: 1.54 nM
- Kd [22]: 1.68 nM
- EC50 (read off the curve) (GST-human NOGO-A56 [23]): ~0.09 mg/L
- Kd (GST-human NOGO-A56 [24]): 0.41 nM
